Experimental data as given in patent publication US20230183314A1 (ARO BIOTHERAPEUTICS, published 2023).
Like-named read-outs stand apart in the source and are kept apart here.

T1: cynomolgus monkey PSMA-Fc fusion (human; cynomolgus monkey, PSMA is a glycosylated homodimer. Only one subunit is given.)
T1 construct: also called cyno PSMA Fc; cynoPSMA-Fc; not shown: Human IgG1 Fc domain, which sits N-terminal of the PSMA ECD, and the junction with the Prescission protease site
T1 chain: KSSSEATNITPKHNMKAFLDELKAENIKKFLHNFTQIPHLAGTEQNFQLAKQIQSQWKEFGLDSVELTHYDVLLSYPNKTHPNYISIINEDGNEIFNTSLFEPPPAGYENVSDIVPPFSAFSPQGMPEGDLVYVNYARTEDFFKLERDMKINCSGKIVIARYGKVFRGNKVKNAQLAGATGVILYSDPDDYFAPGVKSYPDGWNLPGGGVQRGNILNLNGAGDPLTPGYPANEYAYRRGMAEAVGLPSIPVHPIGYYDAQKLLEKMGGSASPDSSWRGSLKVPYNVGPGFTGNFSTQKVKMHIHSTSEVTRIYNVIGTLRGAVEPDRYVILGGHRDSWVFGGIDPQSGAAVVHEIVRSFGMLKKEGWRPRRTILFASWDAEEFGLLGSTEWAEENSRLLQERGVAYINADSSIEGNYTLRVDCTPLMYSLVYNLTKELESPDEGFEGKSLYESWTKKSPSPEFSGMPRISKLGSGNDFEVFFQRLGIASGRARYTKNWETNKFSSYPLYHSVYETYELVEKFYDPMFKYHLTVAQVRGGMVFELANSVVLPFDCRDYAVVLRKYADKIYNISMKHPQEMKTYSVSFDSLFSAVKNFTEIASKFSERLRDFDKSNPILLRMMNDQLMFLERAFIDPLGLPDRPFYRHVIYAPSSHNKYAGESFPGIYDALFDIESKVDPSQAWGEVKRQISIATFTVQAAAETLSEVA


How the values were obtained:
[1] = target: T2, human prostate specific membrane antigen (PSMA) (human, UniProt Q04609 1-750); assay: binding to LNCaP cells (flow cytometry, FIG. 8C)
T2 construct: Endogenous PSMA on the human prostate cancer cell lines LNCaP, 22Rv1, MDA-PCA-2B and VCAP; also called human PSMA
T2 sequence (Q04609 whole entry): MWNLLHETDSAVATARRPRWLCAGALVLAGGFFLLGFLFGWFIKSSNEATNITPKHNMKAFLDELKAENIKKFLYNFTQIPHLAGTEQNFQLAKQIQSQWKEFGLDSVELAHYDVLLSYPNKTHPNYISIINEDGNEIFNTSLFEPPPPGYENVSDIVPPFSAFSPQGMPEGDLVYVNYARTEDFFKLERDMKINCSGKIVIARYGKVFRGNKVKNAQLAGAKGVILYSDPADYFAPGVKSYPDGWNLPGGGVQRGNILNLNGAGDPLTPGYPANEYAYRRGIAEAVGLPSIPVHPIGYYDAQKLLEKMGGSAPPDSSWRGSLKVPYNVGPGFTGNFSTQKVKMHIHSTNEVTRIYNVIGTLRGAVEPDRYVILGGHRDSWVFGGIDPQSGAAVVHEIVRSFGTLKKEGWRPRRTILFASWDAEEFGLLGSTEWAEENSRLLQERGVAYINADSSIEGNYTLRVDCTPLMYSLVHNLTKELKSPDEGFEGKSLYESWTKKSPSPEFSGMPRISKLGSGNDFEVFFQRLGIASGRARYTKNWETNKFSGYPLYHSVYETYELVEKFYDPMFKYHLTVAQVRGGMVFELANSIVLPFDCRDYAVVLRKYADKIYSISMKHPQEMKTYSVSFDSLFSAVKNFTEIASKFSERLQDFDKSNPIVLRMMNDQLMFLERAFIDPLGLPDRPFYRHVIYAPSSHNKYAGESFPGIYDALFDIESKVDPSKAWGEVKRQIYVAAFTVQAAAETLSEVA

[2] = target: T2, human prostate specific membrane …; assay: flow cytometry, direct binding to LNCaP cells (relative cell binding, MFI, against concentration in nM); the table under the plot labels the half-maximal concentration IC50; unit taken from the concentration axis
[3] = target: T2, human prostate specific membrane …; assay: as above; remark: listed apart in the source
[4] = target: T1, cynomolgus monkey PSMA-Fc fusion; assay: binding to cynoPSMA-Fc; method not described
[5] = target: T2, human prostate specific membrane …; assay: flow cytometry, direct binding to LNCaP cells (relative cell binding, MFI, against concentration in nM); the table under the plot labels the half-maximal concentration IC50; unit taken from the concentration axis; remark: listed apart in the source
[6] = target: T2, human prostate specific membrane …; assay: binding to LNCaP cells (flow cytometry, FIG. 9C)
[7] = target: T1, cynomolgus monkey PSMA-Fc fusion; assay: binding to cynoPSMA-Fc; method not described

Row | Binder | Kd [1] [nM] | IC50 [2] [nM] | IC50 [3] [nM] | Kd [4] [nM] | IC50 [5] [nM] | Kd [6] [nM] | Kd [7] [nM]
1 | P233FR9_H10 PSMA binding FN3 domain (designed binder, His-tagged, expressed in E. coli; also called H10 centyrin; not shown: C-terminal poly-histidine tag) LPAPKNLVVSRVTEDSARLSWTAPDAAFDSFAIGYWEWDDDGEAIVLTVPGSERSYDLTGLKPGTEYPVYIAGVKGGQWSFPLSAIFTT | ~0.003 | 0.598 | 0.598 | 692 | 0.598 | – | –
2 | P233FR9_H10_v18 (designed binder, Optimized Centyrin; not shown: C-terminal poly-histidine tag) LPAPKNLVVSRVTEDSARLSWTAPDAAFDSFAIAYWEWDDDGEAIVLTVPGSCRSYDLTGLKPGTEYPVYIAGVKGGQWSFPLSAIFTT | – | – | 0.608 | – | – | – | –
3 | P258AR6P1071_D02 (designed binder, not shown: C-terminal poly-histidine tag) LPAPKNLVVSRVTEDSARLSWAIDEQRDWFESFLIQYQESEKVGEAIVLTVPGSERSYDLTGLKPGTEYTVSIYGVYHVYRSNPLSAIFTT | – | – | – | – | 1.32 | ~0.025 | 0.1
